The text below walks through data of publication PMC3655063, “A UDP-X Diphosphatase from Streptococcus pneumoniae Hydrolyzes Precursors of Peptidoglycan Biosynthesis” (PLoS ONE, 2013).

Substrate in data set [1]: CC(=O)N[C@H]1[C@@H](OP(=O)(O)OP(=O)(O)OC[C@H]2O[C@@H](n3ccc(=O)[nH]c3=O)[C@H](O)[C@@H]2O)O[C@H](CO)[C@@H](O)[C@@H]1O[C@H](C)C(=O)N[C@@H](C)C(=O)O
The data set is described as follows: orthophosphate release with calf intestinal alkaline phosphatase coupling; Michaelis-Menten fit of initial rates. In kind it is biochemical, Streptococcus pneumoniae. As to conditions: 50 mM Tris pH 8.4, 5 mM MgCl2, 100 nM enzyme, 37°C for the relative activity assay. From the text: (§1) orthophosphate release with calf intestinal alkaline phosphatase coupling; Michaelis-Menten fit of initial rates on UDP-X diphosphatase (UDP-Xase), SP_1669

Substrate in data set [2]: CC(=O)N[C@H]1[C@@H](OP(=O)(O)OP(=O)(O)OC[C@H]2O[C@@H](n3ccc(=O)[nH]c3=O)[C@H](O)[C@@H]2O)O[C@H](CO)[C@@H](O)[C@@H]1O[C@H](C)C(=O)O
The data set is described as above. The class given is biochemical, Streptococcus pneumoniae. As to conditions: 50 mM Tris pH 8.4, 5 mM MgCl2, 100 nM enzyme, 37°C for the relative activity assay.
Source text: as §1

Substrate in data set [3]: O=c1ccn([C@@H]2O[C@H](CO[P@@](=O)(O)O[P@@](=O)(O)O[C@H]3O[C@H](CO)[C@@H](O)[C@H](O)[C@H]3O)[C@@H](O)[C@H]2O)c(=O)[nH]1
The description is as above. In kind it is biochemical, Streptococcus pneumoniae. The following applies: 50 mM Tris pH 8.4, 5 mM MgCl2, 100 nM enzyme, 37°C for the relative activity assay.
Source text: as §1

Data set [4] deals with the molecule itself. The data set is described as follows: SEC; size-exclusion chromatography, data not shown. For orientation: In gel filtration, larger molecules generally elute earlier.
Data set [5] concerns the molecule itself. Briefly: SAXS; small-angle X-ray scattering of the mutants in solution, 4.5 and 6 mg/mL; ab initio envelopes fitted with the wild-type crystal dimer (PDB 4HFQ).

B1: UDP-X diphosphatase from Streptococcus pneumoniae TIGR4 (SP_1669 gene product), wild type (enzyme, UniProt A0A0H2URA0 1-203, looked up)
chain: MKTSDFVKYLQRMIAITDTGLTFTKDPFDRERYEDLRSLLSEMLNQASDLDSEEVAEVLKPTSAYATPLMDVRAWIVEDEKICLVRGQGEDSWALPGGFGEVGYSPTENILKEIEEETGFKAKVERLLAVFDTNRFQLQSKQYTKFVFGCKLLDGQFQENQEIADLQFFAIDQLPNLSEKRITKEQIELLWQVYQGHRGQYLD
notes: Nudix hydrolase UDP-X diphosphatase encoded by gene SP_1669 of Streptococcus pneumoniae TIGR4; the gene was amplified from genomic DNA with NdeI and BamHI sites at its start and end; the structure describes residues 1-203 (N-terminal domain 1-59, loop 60-68, C-terminal catalytic domain 69-203); No tag is named; also called UDP-Xase; source: E. coli BL21(DE3), pET-24a, purified (ammonium sulfate, …)
By Km is commonly meant the concentration of substrate that gives half-maximal velocity. In general, Vmax refers to the rate approached at saturating substrate. What is called kcat is the maximal rate divided by the concentration of active sites. What is called kcat/Km is the second-order rate constant that governs catalysis at low substrate concentration. By stoichiometry N is commonly meant the number of molecules, sites or subunits per partner or assembly. Turning to B1, in data set [1], the Km stood at 1600 ± 300 µM, the maximal velocity (Vmax) is 28.3 µM/min, the turnover number (kcat) stood at 4.7 ± 0.2 s⁻¹ and the specificity constant (kcat/Km) came out at 2900 ± 700 M⁻¹ s⁻¹. Besides, in data set [2], the Michaelis-Menten constant (Km) is 3600 ± 400 µM, the Vmax amounted to 17.7 µM/min, the kcat stood at 3 ± 0.1 s⁻¹ and the specificity constant (kcat/Km) amounted to 800 ± 100 M⁻¹ s⁻¹. Also, in data set [3], the Michaelis-Menten constant (Km) stood at 2900 ± 1100 µM, the Vmax was 7 µM/min, the catalytic constant (kcat) came to 1.2 ± 0.1 s⁻¹ and the specificity constant (kcat/Km) came out at 400 ± 200 M⁻¹ s⁻¹. Besides, the “stoichiometry N” value in data set [4] came out at 2.

B2: UDP-X diphosphatase E113A mutant (enzyme)
chain: MKTSDFVKYLQRMIAITDTGLTFTKDPFDRERYEDLRSLLSEMLNQASDLDSEEVAEVLKPTSAYATPLMDVRAWIVEDEKICLVRGQGEDSWALPGGFGEVGYSPTENILKAIEEETGFKAKVERLLAVFDTNRFQLQSKQYTKFVFGCKLLDGQFQENQEIADLQFFAIDQLPNLSEKRITKEQIELLWQVYQGHRGQYLD
notes: UDP-X diphosphatase encoded by gene SP_1669 of Streptococcus pneumoniae TIGR4, with E113A made by site-directed mutagenesis of the wild-type construct; Same construct as m1 apart from the mutation; also called UDP-Xase E113A; source: E. coli, expressed as the wild type, purified (ammonium sulfate, Phenyl FF, Source Q, Sephacryl S200)
Take B2: in data set [5], the “stoichiometry N” value came out at 2.

B3: UDP-X diphosphatase E162A mutant (enzyme)
chain: MKTSDFVKYLQRMIAITDTGLTFTKDPFDRERYEDLRSLLSEMLNQASDLDSEEVAEVLKPTSAYATPLMDVRAWIVEDEKICLVRGQGEDSWALPGGFGEVGYSPTENILKEIEEETGFKAKVERLLAVFDTNRFQLQSKQYTKFVFGCKLLDGQFQENQAIADLQFFAIDQLPNLSEKRITKEQIELLWQVYQGHRGQYLD
notes: UDP-X diphosphatase encoded by gene SP_1669 of Streptococcus pneumoniae TIGR4, with E162A made by site-directed mutagenesis of the wild-type construct; Same construct as m1 apart from the mutation; also called UDP-Xase E162A; source: E. coli, expressed as the wild type, purified (ammonium sulfate, Phenyl FF, Source Q, Sephacryl S200)
For B3, in data set [5], the binding result was “binds”.
